The target of test [1] is T1, human MUC1 on cells (DA3-TM transfectants and human cancer cell lines SKOV3, COLO357, HT29 and others) (human, UniProt P15941 24-1255).
T1 construct: also called MUC1-SEA; surface MUC1
Put plainly: flow cytometry on SKOV-3 cells, geometric mean against concentration. In general terms: In flow cytometry, cells or beads pass a laser one at a time.

Test [2] deals with T1, human MUC1 on cells (DA3-TM …). Briefly: flow cytometry, dose-dependent binding on MUC1 positive DA3-TM cells.
Test [3] shares this target. Put plainly: flow cytometry on DA3-TM cells; table row 4 of 5, about 1.2 nM by the matching point in FIG. 3A.
Test [4] has the same target. Briefly: flow cytometry on DA3-TM cells; table row 5 of 5, about 0.4 nM by the matching point in FIG. 3A.
The target is the same in test [5]. Put plainly: flow cytometry on DA3-TM cells; table row 2 of 5, about 11 nM by the matching point in FIG. 3A.
For test [6] the target is unchanged. Briefly: flow cytometry on DA3-TM cells; table row 3 of 5, about 3.7 nM by the matching point in FIG. 3A.

Where a chain is given by its changes, count along the chain named.

Data on eight molecules can be found in patent publication US20250041437A1 (SUN PHARMA ADVANCED RESEARCH, published 2025).

T1 sequence (P15941 24-1255 limits assumed): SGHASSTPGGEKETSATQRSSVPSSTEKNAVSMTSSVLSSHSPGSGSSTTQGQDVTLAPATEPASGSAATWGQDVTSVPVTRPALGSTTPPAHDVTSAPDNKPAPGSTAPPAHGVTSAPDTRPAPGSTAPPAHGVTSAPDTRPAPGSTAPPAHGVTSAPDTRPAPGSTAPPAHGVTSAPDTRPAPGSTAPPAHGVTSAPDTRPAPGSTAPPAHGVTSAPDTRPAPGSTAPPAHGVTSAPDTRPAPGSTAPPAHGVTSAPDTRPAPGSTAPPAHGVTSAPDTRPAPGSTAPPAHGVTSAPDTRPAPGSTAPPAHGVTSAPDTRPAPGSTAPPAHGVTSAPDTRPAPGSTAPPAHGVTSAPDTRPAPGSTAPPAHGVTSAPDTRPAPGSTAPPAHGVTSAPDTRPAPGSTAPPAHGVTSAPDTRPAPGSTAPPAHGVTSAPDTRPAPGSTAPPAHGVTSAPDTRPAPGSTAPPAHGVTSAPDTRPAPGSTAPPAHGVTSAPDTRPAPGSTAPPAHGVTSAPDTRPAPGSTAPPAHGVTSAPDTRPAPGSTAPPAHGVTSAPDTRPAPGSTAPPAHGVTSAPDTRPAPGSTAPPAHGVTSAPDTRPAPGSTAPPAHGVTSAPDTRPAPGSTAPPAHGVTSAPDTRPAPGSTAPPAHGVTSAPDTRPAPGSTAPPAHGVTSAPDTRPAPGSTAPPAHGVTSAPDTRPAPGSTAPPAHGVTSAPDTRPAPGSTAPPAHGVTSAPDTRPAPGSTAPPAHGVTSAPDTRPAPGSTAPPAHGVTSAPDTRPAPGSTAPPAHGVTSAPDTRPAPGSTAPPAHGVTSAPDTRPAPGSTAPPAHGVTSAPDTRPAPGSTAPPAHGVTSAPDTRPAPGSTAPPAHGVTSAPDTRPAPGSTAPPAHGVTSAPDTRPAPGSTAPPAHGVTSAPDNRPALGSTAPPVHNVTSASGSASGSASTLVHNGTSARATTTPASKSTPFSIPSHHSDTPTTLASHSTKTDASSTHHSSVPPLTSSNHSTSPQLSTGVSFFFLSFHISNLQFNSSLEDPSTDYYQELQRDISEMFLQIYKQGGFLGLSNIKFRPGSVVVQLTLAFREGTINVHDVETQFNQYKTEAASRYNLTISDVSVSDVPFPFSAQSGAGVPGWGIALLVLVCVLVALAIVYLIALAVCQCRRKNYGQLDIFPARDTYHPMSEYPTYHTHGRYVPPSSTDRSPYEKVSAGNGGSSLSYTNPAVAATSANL

B1: humanized IgG1 anti-MUC1-SEA mAb (HM5 LM4) (antibody, V domains shown)
VH: EIQLVQSGAEVKKPGSSVKVSCKVTGHSITRGSSWHWMRQAPGQGLEWIGYIHYGGGTSYNPSLKSRITITRDTSTNTFYMELSSLRSEDTAFYFCARYSYDITYRWFFDVWGQGTLVTVSS
VL: DIQMTQSPSTLSASVGDRVTITCRASQNIGTSIHWYQQKPGKAPKLLIKYASESISGVPSRFSGSGSGTEFTLTISSLQPDDFATYYCQQNNNWPLTFGQGTKVEIKR
notes: also called Humanized anti-MUC1 SEA IgG1; humanized IgG anti-MUC1-SEA mAb
Consider B1, for which the half-maximal effective concentration (EC50 (read off the curve)) (in general, the concentration that produces a half-maximal response) in test [1] is approximately 3 nM. In test [2], the affinity, expressed as Kd, was 1 nM.

B2: HM2 LM2 variant of humanized anti-MUC1 antibody SP66 (antibody, V domains shown)
VH: B1 VH with F79A
VL: DIQMTQSPSTLSASVGDRVTITCRASQNIGTSIHWYQQKPGKAPKLLIKRASESISGVPSRFSGSGSGTEFTLTISSLQPDDFATYYCQQNNNWPLTFGQGTKVEVK
notes: Humanized IgG expressed in CHO cells; only variable domains tied to the variant
For B2, the “Geometric Mean : FL6-A” value in test [3] was 6400; in test [4] it was 2860; in test [5], 15000; in test [6], 11800. Besides, in test [2], binding was characterised by a dissociation constant (Kd) of 3.2 nM.

B3: HM5 LM3 variant of humanized anti-MUC1 antibody SP66 (antibody, V domains shown)
VH: B1 VH
VL: B2 VL with R50Y
notes: as for B2
With B3, the Kd (as a rule, the constant that tells how readily two partners part at equilibrium) in test [2] was 0.9 nM.

B4: HM5 LM2 variant of humanized anti-MUC1 antibody SP66 (antibody, V domains shown)
VH: B1 VH
VL: B2 VL
notes: as for B2
In the case of B4, the “Geometric Mean : FL6-A” value stood at 14600 in test [3], 7990 in test [4], 23700 in test [5] and 21300 in test [6]. In test [2], this molecule yielded a dissociation constant (Kd) of 1.4 nM.

B5: HM2 LM1 variant of humanized anti-MUC1 antibody SP66 (antibody, V domains shown)
VH: B1 VH with F79A
VL: B2 VL with Y36F
notes: as for B2
In the case of B5, the “Geometric Mean : FL6-A” value in test [3] came to 1870; in test [4], 727; in test [5], 10000; in test [6], 4900. This molecule also came in with a Kd in test [2] of 14.5 nM.

B6: HM3 LM2 variant of humanized anti-MUC1 antibody SP66 (antibody, V domains shown)
VH: B1 VH with I68A, I70L, F79A
VL: B2 VL
notes: as for B2
In the case of B6, in test [2], the Kd was 3.7 nM.

B7: HM4 LM3 variant of humanized anti-MUC1 antibody SP66 (antibody, V domains shown)
VH: B1 VH with I68A, I70L
VL: B2 VL with R50Y
notes: as for B2
On to B7, for which the “Geometric Mean : FL6-A” value in test [3] was determined as 9700; in test [4] it was 5320; in test [5] it was 22300; in test [6], 17600. The affinity in test [2], expressed as Kd, was 1.5 nM.

B8: HM4 LM2 variant of humanized anti-MUC1 antibody SP66 (antibody, V domains shown)
VH: B1 VH with I68A, I70L
VL: B2 VL
notes: as for B2
B8: the dissociation constant (Kd) in test [2] was 2.1 nM.
